# B1: BBSome complex member BBS4 (Homo sapiens), Q96RK4 (parent)
# chain: MAEERVATRTQFPVSTESQKPRQKKAPEFPILEKQNWLIHLHYIRKDYEACKAVIKEQLQETQGLCEYAIYVQALIFRLEGNIQESLELFQTCAVLSPQSADNLKQVARSLFLLGKHKAAIEVYNEAAKLNQKDWEISHNLGVCYIYLKQFNKAQDQLHNALNLNRHDLTYIMLGKIHLLEGDLDKAIEVYKKAVEFSPENTELLTTLGLLYLQLGIYQKAFEHLGNALTYDPTNYKAILAAGSMMQTHGDFDVALTKYRVVACAVPESPPLWNNIGMCFFGKKKYVAAISCLKRANYLAPFDWKILYNLGLVHLTMQQYASAFHFLSAAINFQPKMGELYMLLAVALTNLEDIENAKRAYAEAVHLDKCNPLVNLNYAVLLYNQGEKKNALAQYQEMEKKVSLLKDNSSLEFDSEMVEMAQKLGAALQVGEALVWTKPVKDPKSKHQTTSTSKPASFQQPLGSNQALGQAMSSAAAYRTLPSGAGGTSQFTKPPSLPLEPEPAVESSPTETSEQIREK
# partner: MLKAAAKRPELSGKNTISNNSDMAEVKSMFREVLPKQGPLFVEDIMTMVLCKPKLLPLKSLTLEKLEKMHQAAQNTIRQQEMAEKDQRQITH
# Variants of: B1
# Conditions: with bbip1_human BBIP1, A8MTZ0
row,Variant,effect of a mutation on the interaction
1,MAEERVATRTQFPVSTESQKPRQKKAPEFPILEKQNWLIHLHYIRKDYEACKAVIKEQLQETQGLCEYAIYVQALIFRLEGNIQESLELFQTCAVLSPQSADNLKQVARSLFLLGKHKAAIEVYNEAAKLNQKDWEISHNLGVCYIYLKQFNKAQDQLHNALNLNRHDLTYIMLGKIHLLEGDLDKAIEVYKKAVEFSPENTELLTTLGLLYLQLGIYQKAFEHLGNALTYDPTNYKAILAAGSMMQTHGDFDVALTKYRVVACAVPESPPLWNNIGMCFFGKKKYVAAISCLKRANYLAPFDWKILYNLGLVHLTMQQYKSAFHFLSAAINFQPKMGELYMLLAVALTNLEDIENAKRAYAEAVHLDKCNPLVNLNYAVLLYNQGEKKNALAQYQEMEKKVSLLKDNSSLEFDSEMVEMAQKLGAALQVGEALVWTKPVKDPKSKHQTTSTSKPASFQQPLGSNQALGQAMSSAAAYRTLPSGAGGTSQFTKPPSLPLEPEPAVESSPTETSEQIREK [A321K],with no effect
2,MAEERVATRTQFPVSTESQKPRQKKAPEFPILEKQNWLIHLHYIRKDYEACKAVIKEQLQETQGLCEYAIYVQALIFRLEGNIQESLELFQTCAVLSPQSADNLKQVARSLFLLGKHKAAIEVYNEAAKLNQKDWEISHNLGVCYIYLKQFNKAQDQLHNALNLNRHDLTYIMLGKIHLLEGDLDKAIEVYKKAVEFSPENTELLTTLGLLYLQLGIYQKAFEHLGNALTYDPTNYKAILAAGSMMQTHGDFDVALTKYRVVACAVPESPPLWNNIGMCFFGKKKYVAAISCLKRANYLAPFDWKILYNLGLVHLTMQQYASAFHFLSAAINFQPKMGELYMLLAVALTNLEDIENAKRAYAEAVHLDKCNPLVNLNYAVLLYNQGEKKNALAQYQAMEKKVSLLKDNSSLEFDSEMVEMAQKLGAALQVGEALVWTKPVKDPKSKHQTTSTSKPASFQQPLGSNQALGQAMSSAAAYRTLPSGAGGTSQFTKPPSLPLEPEPAVESSPTETSEQIREK [E397A],with no effect
3,MAEERVATRTQFPVSTESQKPRQKKAPEFPILEKQNWLIHLHYIRKDYEACKAVIKEQLQETQGLCEYAIYVQALIFRLEGNIQESLELFQTCAVLSPQSADNLKQVARSLFLLGKHKAAIEVYNEAAKLNQKDWEISHNLGVCYIYLKQFNKAQDQLHNALNLNRHDLTYIMLGKIHLLEGDLDKAIEVYKKAVEFSPENTELLTTLGLLYLQLGIYQKAFEHLGNALTYDPTNYKAILAAGSMMQTHGDFDVALTKYRVVACAVPESPPLWNNIGMCFFGKKKYVAAISCLKRANYLAPFDWKILYNLGLVHLTMQQYASAFHFLSAAINFQPKMGELYMLLAVALTNLEDIENAKRAYAEAVHLDKCNPLVNLNYAVLLYNQGEKKNALAQYQEMEKKVSLLKDNKSLEFDSEMVEMAQKLGAALQVGEALVWTKPVKDPKSKHQTTSTSKPASFQQPLGSNQALGQAMSSAAAYRTLPSGAGGTSQFTKPPSLPLEPEPAVESSPTETSEQIREK [S409K],with no effect
4,MAEERVATRTQFPVSTESQKPRQKKAPEFPILEKQNWLIHLHYIRKDYEACKAVIKEQLQETQGLCEYAIYVQALIFRLEGNIQESLELFQTCAVLSPQSADNLKQVARSLFLLGKHKAAIEVYNEAAKLNQKDWEISHNLGVCYIYLKQFNKAQDQLHNALNLNRHDLTYIMLGKIHLLEGDLDKAIEVYKKAVEFSPENTELLTTLGLLYLQLGIYQKAFEHLGNALTYDPTNYKAILAAGSMMQTHGDFDVALTKYRVVACAVPESPPLWNNIGMCFFGKKKYVAAISCLKRANYLAPFDWKILYNLGLVHLTMQQYASAFHFLSAAINFQPKMGELYMLLAVALTNLEDIENAKRAYAEAVHLDKCNPLVNLNYAVLLYNQGEKKLALAQYQEMEKKVSLLKDNSSLEFDSEMVEMAQKLGAALQVGEALVWTKPVKDPKSKHQTTSTSKPASFQQPLGSNQALGQAMSSAAAYRTLPSGAGGTSQFTKPPSLPLEPEPAVESSPTETSEQIREK [N390L],disrupting interaction strength
5,MAEERVATRTQFPVSTESQKPRQKKAPEFPILEKQNWLIHLHYIRKDYEACKAVIKEQLQETQGLCEYAIYVQALIFRLEGNIQESLELFQTCAVLSPQSADNLKQVARSLFLLGKHKAAIEVYNEAAKLNQKDWEISHNLGVCYIYLKQFNKAQDQLHNALNLNRHDLTYIMLGKIHLLEGDLDKAIEVYKKAVEFSPENTELLTTLGLLYLQLGIYQKAFEHLGNALTYDPTNYKAILAAGSMMQTHGDFDVALTKYRVVACAVPESPPLWNNIGMCAFGKKKYVAAISCLKRANYLAPFDWKILYNLGLVHLTMQQYASAFHFLSAAINFQPKMGELYMLLAVALTNLEDIENAKRAYAEAVHLDKCNPLVNLNYAVLLYNQGEKKNALAQYQEMEKKVSLLKDNSSLEFDSEMVEMAQKLGAALQVGEALVWTKPVKDPKSKHQTTSTSKPASFQQPLGSNQALGQAMSSAAAYRTLPSGAGGTSQFTKPPSLPLEPEPAVESSPTETSEQIREK [F280A],with no effect
6,MAEERVATRTQFPVSTESQKPRQKKAPEFPILEKQNWLIHLHYIRKDYEACKAVIKEQLQETQGLCEYAIYVQALIFRLEGNIQESLELFQTCAVLSPQSADNLKQVARSLFLLGKHKAAIEVYNEAAKLNQKDWEISHNLGVCYIYLKQFNKAQDQLHNALNLNRHDLTYIMLGKIHLLEGDLDKAIEVYKKAVEFSPENTELLTTLGLLYLQLGIYQKAFEHLGNALTYDPTNYKAILAAGSMMQTHGDFDVALTKYRVVACAVPESPPLWNNIGMCFFGKKKYVAAISCLKRANYLAPFDWKILYNLGLVHLTMQQYASAFHFLSAAINFQPKMGELYMLLAVALTNLEDIENAKRAYAEAVHLDKCNPLVNLNYAVLLYNQGEKKNALAQYQEMEKKVSLLKDNSSLEFDSEMVEMAQKLGAALQVGEALVWTKPVKDPKSKHQTTSTSKPASFQQPLGSNQALGQAMSSKAAYRTLPSGAGGTSQFTKPPSLPLEPEPAVESSPTETSEQIREK [A475K],with no effect
7,MAEERVATRTQFPVSTESQKPRQKKAPEFPILEKQNWLIHLHYIRKDYEACKAVIKEQLQETQGLCEYAIYVQALIFRLEGNIQESLELFQTCAVLSPQSADNLKQVARSLFLLGKHKAAIEVYNEAAKLNQKDWEISHNLGVCYIYLKQFNKAQDQLHNALNLNRHDLTYIMLGKIHLLEGDLDKAIEVYKKAVEFSPENTELLTTLGLLYLQLGIYQKAFEHLGNALTYDPTNYKAILAAGSMMQTHGDFDVALTKYRVVACAVPESPPLWNNIGMCFFGKKKYVAAISCLKRANYLAPFDWKILYNLGLVHLTMQQYASAFHFLSAAINFQPKMGELYMLLAVALTNLEDIENAKRAYAEAVHLDKCNPLVNLNYAVLLYNQGEKKNVLAQYQEMEKKVSLLKDNSSLEFDSEMVEMAQKLGAALQVGEALVWTKPVKDPKSKHQTTSTSKPASFQQPLGSNQALGQAMSSAAAYRTLPSGAGGTSQFTKPPSLPLEPEPAVESSPTETSEQIREK [A391V],disrupting interaction strength
8,MAEERVATRTQFPVSTESQKPRQKKAPEFPILEKQNWLIHLHYIRKDYEACKAVIKEQLQETQGLCEYAIYVQALIFRLEGNIQESLELFQTCAVLSPQSADNLKQVARSLFLLGKHKAAIEVYNEAAKLNQKDWEISHNLGVCYIYLKQFNKAQDQLHNALNLNRHDLTYIMLGKIHLLEGDLDKAIEVYKKAVEFSPENTELLTTLGLLYLQLGIYQKAFEHLGNALTYDPTNYKAILAAGSMMQTHGDFDVALTKYRVVACAVPESPPLWNNIGMCFFGKKKYVAAISCLKRANYLAPFDWKILYNLGLVHLTMQQYASAFHFLSAAINFQPKMGELYMLLAVALTNLEDIENAKRAYAEAVHLDKCNPLVNLNYAVLLYNQGEKKNALAQYQEMEKKVSLLKDNSELEFDSEMVEMAQKLGAALQVGEALVWTKPVKDPKSKHQTTSTSKPASFQQPLGSNQALGQAMSSAAAYRTLPSGAGGTSQFTKPPSLPLEPEPAVESSPTETSEQIREK [S410E],with no effect
9,MAEERVATRTQFPVSTESQKPRQKKAPEFPILEKQNWLIHLHYIRKDYEACKAVIKEQLQETQGLCEYAIYVQALIFRLEGNIQESLELFQTCAVLSPQSADNLKQVARSLFLLGKHKAAIEVYNEAAKLNQKDWEISHNLGVCYIYLKQFNKAQDQLHNALNLNRHDLTYIMLGKIHLLEGDLDKAIEVYKKAVEFSPENTELLTTLGLLYLQLGIYQKAFEHLGNALTYDPTNYKAILAAGSMMQTHGDFDVALTKYRVVACAVPESPPLWNNIGMCFFGKKKYVAAISCLKRANYLAPFDWKIAYNLGLVHLTMQQYASAFHFLSAAINFQPKMGELYMLLAVALTNLEDIENAKRAYAEAVHLDKCNPLVNLNYAVLLYNQGEKKNALAQYQEMEKKVSLLKDNSSLEFDSEMVEMAQKLGAALQVGEALVWTKPVKDPKSKHQTTSTSKPASFQQPLGSNQALGQAMSSAAAYRTLPSGAGGTSQFTKPPSLPLEPEPAVESSPTETSEQIREK [L307A],with no effect
10,MAEERVATRTQFPVSTESQKPRQKKAPEFPILEKQNWLIHLHYIRKDYEACKAVIKEQLQETQGLCEYAIYVQALIFRLEGNIQESLELFQTCAVLSPQSADNLKQVARSLFLLGKHKAAIEVYNEAAKLNQKDWEISHNLGVCYIYLKQFNKAQDQLHNALNLNRHDLTYIMLGKIHLLEGDLDKAIEVYKKAVEFSPENTELLTTLGLLYLQLGIYQKAFEHLGNALTYDPTNYKAILAAGSMMQTHGDFDVALTKYRVVACAVPESPPLWNNIGMCFFGKKKYVAAISCLKRANYLAPFDWKILYNLGLVHLTMQQYASAFHFLSAAINFQPKMGELYMLLAVALTNLEDIENAKRAYAAAVHLDKCNPLVNLNYAVLLYNQGEKKNALAQYQEMEKKVSLLKDNSSLEFDSEMVEMAQKLGAALQVGEALVWTKPVKDPKSKHQTTSTSKPASFQQPLGSNQALGQAMSSAAAYRTLPSGAGGTSQFTKPPSLPLEPEPAVESSPTETSEQIREK [E363A],with no effect
11,MAEERVATRTQFPVSTESQKPRQKKAPEFPILEKQNWLIHLHYIRKDYEACKAVIKEQLQETQGLCEYAIYVQALIFRLEGNIQESLELFQTCAVLSPQSADNLKQVARSLFLLGKHKAAIEVYNEAAKLNQKDWEISHNLGVCYIYLKQFNKAQDQLHNALNLNRHDLTYIMLGKIHLLEGDLDKAIEVYKKAVEFSPENTELLTTLGLLYLQLGIYQKAFEHLGNALTYDPTNYKAILAAGSMMQTHGDFDVALTKYRVVACAVPESPPLWNNIGMCFFGKKKYVAAISCLKRANYLAPFDWKILYNLGLVHLTMQQYASAFHFLSAAINFQPKMGELYMLLAVALTNLEDIENAKRAYAEAVHLDKCNPLVALNYAVLLYNQGEKKNALAQYQEMEKKVSLLKDNSSLEFDSEMVEMAQKLGAALQVGEALVWTKPVKDPKSKHQTTSTSKPASFQQPLGSNQALGQAMSSAAAYRTLPSGAGGTSQFTKPPSLPLEPEPAVESSPTETSEQIREK [N375A],with no effect
12,MAEERVATRTQFPVSTESQKPRQKKAPEFPILEKQNWLIHLHYIRKDYEACKAVIKEQLQETQGLCEYAIYVQALIFRLEGNIQESLELFQTCAVLSPQSADNLKQVARSLFLLGKHKAAIEVYNEAAKLNQKDWEISHNLGVCYIYLKQFNKAQDQLHNALNLNRHDLTYIMLGKIHLLEGDLDKAIEVYKKAVEFSPENTELLTTLGLLYLQLGIYQKAFEHLGNALTYDPTNYKAILAAGSMMQTHGDFDVALTKYRVVACAVPESPPLWNNIGMCFFGKKKEVAAISCLKRANYLAPFDWKILYNLGLVHLTMQQYASAFHFLSAAINFQPKMGELYMLLAVALTNLEDIENAKRAYAEAVHLDKCNPLVNLNYAVLLYNQGEKKNALAQYQEMEKKVSLLKDNSSLEFDSEMVEMAQKLGAALQVGEALVWTKPVKDPKSKHQTTSTSKPASFQQPLGSNQALGQAMSSAAAYRTLPSGAGGTSQFTKPPSLPLEPEPAVESSPTETSEQIREK [Y286E],with no effect

# Source: IntAct's records for PubMed 29039417
